In patent US20140179594A1, “STREPTOCOCCUS BACTERIOPHAGE LYSINS FOR TREATMENT OF GRAM POSITIVE BACTERIA IN COMPANION ANIMALS AND LIVESTOCK” (priority 2011, published 2014):
Like-named read-outs stand apart in the source and are kept apart here.

How the values were obtained:
Type in all cases: cell-based
S. pneumoniae R36 = test: ΔPlySs1 OD600 lysis, 1 hr
S. suis 7711 (ST7) = test: ΔPlySs1 CFU analysis; conditions: 1 hr
Protocol: (§1) Given the above experiments, the following optimal buffering conditions were employed for all further in vitro experiments with ΔPlySs1: 20 mM phosphate buffer, pH=7.8, 2 mM EDTA. A range of lysin concentrations, from 6.5-130 μg/ml, were introduced to live S. suis cells in this buffer. Three strains were considered particularly relevant: 7711, the serotype 7 strain that encodes PlySs1; 5735, the serotype 2 reference strain; and 7997, a highly virulent serotype 9 strain. In terms of bacterial viability, only the highest PlySs1-concentration (130 μg/ml) led to a >90% decrease in CFUs for 7711, S735, and 7997 after 1 hr treatment (TABLE 2). The lysin was also tested against actively-dividing cells in broth culture (strain 7711) (FIG. 20).
(§2) For two ΔPlySs1 concentrations (130 and 13 μg/ml), CFU analysis was conducted on S. suis strains 5735, 7997, and 7711 after 1 hr treatment (optimal buffering conditions). In each experiment, the percentage-decrease in CFUs was determined for the treated sample versus the untreated. The range of the values observed (across 3 independent experiments) is reported here for each strain. The serotype of each strain is indicated in parentheses.

S. suis 5735 (ST2) = test: ΔPlySs1 CFU analysis; conditions: 1 hr
Protocol: as §1, §2

S. suis 7997 (ST9) = test: ΔPlySs1 CFU analysis; conditions: 1 hr
Protocol: as §1, §2

B. anthracis ΔSterne = test system: B. anthracis ΔSterne
S. suis 7197 (ST7) = test: ΔPlySs1 OD600 lysis, 1 hr
Protocol: as §1
(§3) ΔPlySs1 was further tested against a panel of 19 other S. suis strains of diverse serotypes, as well as other species of Gram-positive bacteria. The same lysin concentrations were used as above. For each dosage, the observed lysis values after 1 hr are listed in TABLE 3 and TABLE 4, and the information is summarized graphically in FIG. 21.

S. suis ST13 = test: ΔPlySs1 OD600 lysis, 1 hr
Protocol: as §1, §3

S. suis ST8 = test: ΔPlySs1 OD600 lysis, 1 hr
Protocol: as §1, §3

S. suis 6388 (ST1) = test: ΔPlySs1 OD600 lysis, 1 hr
Protocol: as §1, §3

S. suis ST11 = test: ΔPlySs1 OD600 lysis, 1 hr
Protocol: as §1, §3

S. suis ST5 = test: ΔPlySs1 OD600 lysis, 1 hr
Protocol: as §1, §3

S. suis 8076 (ST9) = test: ΔPlySs1 OD600 lysis, 1 hr
Protocol: as §1, §3

S. suis ST3 = test: ΔPlySs1 OD600 lysis, 1 hr
Protocol: as §1, §3

S. suis ST2 = test: ΔPlySs1 OD600 lysis, 1 hr
Protocol: as §1, §3

S. suis ST4 = test: ΔPlySs1 OD600 lysis, 1 hr
Protocol: as §1, §3

S. suis 6112 (ST1) = test: ΔPlySs1 OD600 lysis, 1 hr
Protocol: as §1, §3

S. suis 10 (ST2) = test: ΔPlySs1 OD600 lysis, 1 hr
Protocol: as §1, §3

S. suis ST1 = test: ΔPlySs1 OD600 lysis, 1 hr
Protocol: as §1, §3

S. suis ST6 = test: ΔPlySs1 OD600 lysis, 1 hr
Protocol: as §1, §3

S. sobrinus 6715 = test: ΔPlySs1 OD600 lysis, 1 hr

B1: ΔPlySs1: truncated PlySs1 lysin with N-terminal enzymatic and central binding domains, N-terminal 254 amino acids, SEQ ID NO:2 (protein, listed as Streptococcus suis)
chain: MTINLETSIRWMSDRVGKVSYSMDYRNGPNSYDCSSAVYYALMAGGAISAGWAVNTEYMHDWLIRNGYVLVAENKPFNAQRHDVCILGKRGYSSGAGGHVVIFVDNVNVIHCNYARNGISIDNYNQVHRGMYYYLYRPANQPSISNKSLDQLVKETLAGVHGNGDTRKASLGSQYEAVMAVINGKASASEKSDEELAREVLAGKHGAGEDRKRSLGPRYEPVQAKVNELLKAKEKPSETAKNEPQTVQFKEDGDL
1-hour treated/untreated OD600-ratio (S. pneumoniae R36; 6.5 μg/ml): 0.25
1-hour treated/untreated OD600-ratio (S. pneumoniae R36; 13 μg/ml): 0.22
1-hour treated/untreated OD600-ratio (S. pneumoniae R36; 30 μg/ml): 0.14
1-hour treated/untreated OD600-ratio (S. pneumoniae R36; 65 μg/ml): 0.16
1-hour treated/untreated OD600-ratio (S. pneumoniae R36; 130 μg/ml): 0.12
percentage-decrease in CFUs, treated versus untreated (range of 3 experiments) (S. suis 7711 (ST7); 13 μg/ml): 0%-35.6%
percentage-decrease in CFUs, treated versus untreated (range of 3 experiments) (S. suis 7711 (ST7); 130 μg/ml): 95.3%-99.2%
percentage-decrease in CFUs, treated versus untreated (range of 3 experiments) (S. suis 7711 (ST7); 130 μg/ml, listed as PlySs1): > 90%
percentage-decrease in CFUs, treated versus untreated (range of 3 experiments) (S. suis 5735 (ST2); 13 μg/ml): 80.4%-92.6%
percentage-decrease in CFUs, treated versus untreated (range of 3 experiments) (S. suis 5735 (ST2); 130 μg/ml): 95.4%-99.5%
percentage-decrease in CFUs, treated versus untreated (range of 3 experiments) (S. suis 5735 (ST2); 130 μg/ml, listed as PlySs1): > 90%
percentage-decrease in CFUs, treated versus untreated (range of 3 experiments) (S. suis 7997 (ST9); 13 μg/ml): 16.8%-30.3%
percentage-decrease in CFUs, treated versus untreated (range of 3 experiments) (S. suis 7997 (ST9); 130 μg/ml): 89.9%-93.9%
percentage-decrease in CFUs, treated versus untreated (range of 3 experiments) (S. suis 7997 (ST9); 130 μg/ml, listed as PlySs1): > 90%
1-hour treated/untreated OD600-ratio (B. anthracis ΔSterne; 6.5 μg/ml): 1.02
1-hour treated/untreated OD600-ratio (B. anthracis ΔSterne; 30 μg/ml): 1.02
1-hour treated/untreated OD600-ratio (B. anthracis ΔSterne; 65 μg/ml): 0.98
1-hour treated/untreated OD600-ratio (B. anthracis ΔSterne; 130 μg/ml): 0.90
1-hour treated/untreated OD600-ratio (S. suis 7197 (ST7); 6.5 μg/ml): 0.64
1-hour treated/untreated OD600-ratio (S. suis 7197 (ST7); 13 μg/ml): 0.49
1-hour treated/untreated OD600-ratio (S. suis 7197 (ST7); 30 μg/ml): 0.39
1-hour treated/untreated OD600-ratio (S. suis 7197 (ST7); 65 μg/ml): 0.16
1-hour treated/untreated OD600-ratio (S. suis 7197 (ST7); 130 μg/ml): 0.07
1-hour treated/untreated OD600-ratio (S. suis ST13; 6.5 μg/ml): 0.32
1-hour treated/untreated OD600-ratio (S. suis ST13; 13 μg/ml): 0.17
1-hour treated/untreated OD600-ratio (S. suis ST13; 30 μg/ml): 0.04
1-hour treated/untreated OD600-ratio (S. suis ST13; 65 μg/ml): 0.02
1-hour treated/untreated OD600-ratio (S. suis ST13; 130 μg/ml): 0.02
1-hour treated/untreated OD600-ratio (S. suis ST8; 6.5 μg/ml): 0.25
1-hour treated/untreated OD600-ratio (S. suis ST8; 13 μg/ml): 0.12
1-hour treated/untreated OD600-ratio (S. suis ST8; 30 μg/ml): 0.06
1-hour treated/untreated OD600-ratio (S. suis ST8; 65 μg/ml): 0.03
1-hour treated/untreated OD600-ratio (S. suis ST8; 130 μg/ml): 0.03
1-hour treated/untreated OD600-ratio (S. suis 6388 (ST1); 6.5 μg/ml): 0.15
1-hour treated/untreated OD600-ratio (S. suis 6388 (ST1); 13 μg/ml): 0.13
1-hour treated/untreated OD600-ratio (S. suis 6388 (ST1); 30 μg/ml): 0.06
1-hour treated/untreated OD600-ratio (S. suis 6388 (ST1); 65 μg/ml): 0.03
1-hour treated/untreated OD600-ratio (S. suis 6388 (ST1); 130 μg/ml): 0.02
1-hour treated/untreated OD600-ratio (S. suis ST11; 6.5 μg/ml): 0.64
1-hour treated/untreated OD600-ratio (S. suis ST11; 13 μg/ml): 0.47
1-hour treated/untreated OD600-ratio (S. suis ST11; 30 μg/ml): 0.32
1-hour treated/untreated OD600-ratio (S. suis ST11; 65 μg/ml): 0.19
1-hour treated/untreated OD600-ratio (S. suis ST11; 130 μg/ml): 0.07
1-hour treated/untreated OD600-ratio (S. suis ST5; 6.5 μg/ml): 0.78
1-hour treated/untreated OD600-ratio (S. suis ST5; 13 μg/ml): 0.59
1-hour treated/untreated OD600-ratio (S. suis ST5; 30 μg/ml): 0.39
1-hour treated/untreated OD600-ratio (S. suis ST5; 65 μg/ml): 0.22
1-hour treated/untreated OD600-ratio (S. suis ST5; 130 μg/ml): 0.10
1-hour treated/untreated OD600-ratio (S. suis 8076 (ST9); 6.5 μg/ml): 0.52
1-hour treated/untreated OD600-ratio (S. suis 8076 (ST9); 13 μg/ml): 0.40
1-hour treated/untreated OD600-ratio (S. suis 8076 (ST9); 30 μg/ml): 0.21
1-hour treated/untreated OD600-ratio (S. suis 8076 (ST9); 65 μg/ml): 0.14
1-hour treated/untreated OD600-ratio (S. suis 8076 (ST9); 130 μg/ml): 0.04
1-hour treated/untreated OD600-ratio (S. suis ST3; 6.5 μg/ml): 0.81
1-hour treated/untreated OD600-ratio (S. suis ST3; 13 μg/ml): 0.71
1-hour treated/untreated OD600-ratio (S. suis ST3; 30 μg/ml): 0.48
1-hour treated/untreated OD600-ratio (S. suis ST3; 65 μg/ml): 0.32
1-hour treated/untreated OD600-ratio (S. suis ST3; 130 μg/ml): 0.16
1-hour treated/untreated OD600-ratio (S. suis ST2; 6.5 μg/ml): 0.79
1-hour treated/untreated OD600-ratio (S. suis ST2; 13 μg/ml): 0.70
1-hour treated/untreated OD600-ratio (S. suis ST2; 30 μg/ml): 0.49
1-hour treated/untreated OD600-ratio (S. suis ST2; 65 μg/ml): 0.34
1-hour treated/untreated OD600-ratio (S. suis ST2; 130 μg/ml): 0.17
1-hour treated/untreated OD600-ratio (S. suis ST4; 6.5 μg/ml): 0.63
1-hour treated/untreated OD600-ratio (S. suis ST4; 13 μg/ml): 0.47
1-hour treated/untreated OD600-ratio (S. suis ST4; 30 μg/ml): 0.32
1-hour treated/untreated OD600-ratio (S. suis ST4; 65 μg/ml): 0.22
1-hour treated/untreated OD600-ratio (S. suis ST4; 130 μg/ml): 0.12
1-hour treated/untreated OD600-ratio (S. suis 6112 (ST1); 6.5 μg/ml): 0.14
1-hour treated/untreated OD600-ratio (S. suis 6112 (ST1); 13 μg/ml): 0.11
1-hour treated/untreated OD600-ratio (S. suis 6112 (ST1); 30 μg/ml): 0.06
1-hour treated/untreated OD600-ratio (S. suis 6112 (ST1); 65 μg/ml): 0.02
1-hour treated/untreated OD600-ratio (S. suis 6112 (ST1); 130 μg/ml): 0.01
1-hour treated/untreated OD600-ratio (S. suis 10 (ST2); 6.5 μg/ml): 0.29
1-hour treated/untreated OD600-ratio (S. suis 10 (ST2); 13 μg/ml): 0.18
1-hour treated/untreated OD600-ratio (S. suis 10 (ST2); 30 μg/ml): 0.10
1-hour treated/untreated OD600-ratio (S. suis 10 (ST2); 65 μg/ml): 0.05
1-hour treated/untreated OD600-ratio (S. suis 10 (ST2); 130 μg/ml): 0.02
1-hour treated/untreated OD600-ratio (S. suis ST1; 6.5 μg/ml): 0.80
1-hour treated/untreated OD600-ratio (S. suis ST1; 13 μg/ml): 0.34
1-hour treated/untreated OD600-ratio (S. suis ST1; 30 μg/ml): 0.36
1-hour treated/untreated OD600-ratio (S. suis ST1; 65 μg/ml): 0.19
1-hour treated/untreated OD600-ratio (S. suis ST1; 130 μg/ml): 0.06
1-hour treated/untreated OD600-ratio (S. suis ST6; 6.5 μg/ml): 0.76
1-hour treated/untreated OD600-ratio (S. suis ST6; 13 μg/ml): 0.56
1-hour treated/untreated OD600-ratio (S. suis ST6; 30 μg/ml): 0.40
1-hour treated/untreated OD600-ratio (S. suis ST6; 65 μg/ml): 0.21
1-hour treated/untreated OD600-ratio (S. suis ST6; 130 μg/ml): 0.06
1-hour treated/untreated OD600-ratio (S. sobrinus 6715; 6.5 μg/ml): 0.64
1-hour treated/untreated OD600-ratio (S. sobrinus 6715; 13 μg/ml): 0.48
1-hour treated/untreated OD600-ratio (S. sobrinus 6715; 30 μg/ml): 0.39
1-hour treated/untreated OD600-ratio (S. sobrinus 6715; 65 μg/ml): 0.32
1-hour treated/untreated OD600-ratio (S. sobrinus 6715; 130 μg/ml): 0.23
